Experimental data: patent publication US20110212853

Target: recombinant human MCP-1 N1pE (human MCP-1 with an N-terminal pyroglutamate)

B1: recombinant human dipeptidyl peptidase 4 (protein)
chain: NKGTDDATADSRKTYTLTDYLKNTYRLKLYSLRWISDHEYLYKQENNILVFNAEYGNSSVFLENSTFDEFGHSINDYSISPDGQFILLEYNYVKQWRHSYTASYDIYDLNKRQLITEERIPNNTQWVTWSPVGHKLAYVWNNDIYVKIEPNLPSYRITWTGKEDIIYNGITDWVYEEEVFSAYSALWWSPNGTFLAYAQFNDTEVPLIEYSFYSDESLQYPKTVRVPYPKAGAVNPTVKFFVVNTDSLSSVTNATSIQITAPASMLIGDHYLCDVTWATQERISLQWLRRIQNYSVMDICDYDESSGRWNCLVARQHIEMSTTGWVGRFRPSEPHFTLDGNSFYKIISNEEGYRHICYFQIDKKDCTFITKGTWEVIGIEALTSDYLYYISNEYKGMPGGRNLYKIQLSDYTKVTCLSCELNPERCQYYSVSFSKEAKYYQLRCSGPGLPLYTLHSSVNDKGLRVLEDNSALDKMLQNVQMPSKKLDFIILNETKFWYQMILPPHFDKSKKYPLLLDVYAGPCSQKADTVFRLNWATYLASTENIIVASFDGRGSGYQGDKIMHAINRRLGTFEVEDQIEAARQFSKMGFVDNKRIAIWGWSYGGYVTSMVLGSGSGVFKCGIAVAPVSRWEYYDSVYTERYMGLPTPEDNLDHYRNSTVMSRAENFKQVEYLLIHGTADDNVHFQQSAQISKALVDVGVDFQAMWYTDEDHGIASSTAHQHIYTHMSHFIKQCFSLP
  N-terminal cleavage, Maldi-TOF mass spectrometry: MCP-1 is protected by a N-terminal pGlu-residue, which confers resistance against N-terminal cleavage by aminopeptidases, e.g. DP4
